Experimental data taken from the nanobody polyreactivity screen of Harvey et al. (2022).

assay: yeast display, Sf9 membrane polyspecificity reagent, FACS + sequencing; frameworks hold sequencing errors
Outline: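 Galactose induction of a Saccharomyces cerevisiae BJ5465 synthetic nanobody display library ran 36–48 hours. The cells were then stained for 1 hour at 4 °C with 10% biotinylated, detergent-solubilized Sf9 membrane reagent, pulled down on streptavidin microbeads and FACS-sorted into low and high (top ~1%) gates on expression and reagent-binding fluorescence. Labels for polyreactivity follow the gate of origin.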

| Sequence | polyreactivity (PSR sort gate) |
| --- | --- |
| QVQLVESGGGLVQAGGSLRLSCAASGRTFPFYAMGWYRPAPGTERELVASIRGGGGTNYADSVKGRFTISRDNAKNTVYLQMNSLKPEDTAVYYCAARGYGYRGYYYWGQGTQVTVSS | high polyreactivity |
| QVQLVESGGGLVQAGGSLRLSCAASGRTFPGNAMGWYRQAPGKERELVAAISYSGGRTYYSDSVKGRFTISRDNAKNTVYLQMNRLKPEDTAVYYCAKSIVQPSVAAYYYWGQGTQVTVSS | high polyreactivity |
| QVQLVESGGGLVQAGGSLRLSCAASGRTFPGNAMGWYRQAPGKERELVAAITRVGSTYYADSVKGRFTISRDNAKNTVYLQMNSLKPEDTAVYYCAADRLEGYYEDDATGFDYWRQGTQVTVSS | low polyreactivity |
| QVQLVESGGGLVQAGGSLRLSCAASGRTFPGYGMGWYRQAPGKERELVAVITSNGGITYYADSVKGRFTISRDNAKNTVYLQMNSLKPEDTAVYYCAAYEIYYEFDSWGQGTQVTVSS | low polyreactivity |
| QVQLVESGGGLVQAGGSLRLSCAASGRTFPLNAMGWYRQAPGKERELVAAITWSGGRTYYADSVKGRFTISRDNAKNTVYLQMNSLKPEDTAVYYCATDRYAYKLYDYWGQGTQVTVSS | low polyreactivity |
| QVQLVESGGGLVQAGGSLRLSCAASGRTFPLYGMGWYRQAPGKERELVATISRSGGSTYYADSVKGRFTISRDNAKNTVYLQMNSLKPEDTAVYYCIADRHYVPYYSRPRYIPYDYWGQGTQVTVSS | high polyreactivity |
| QVQLVESGGGLVQAGGSLRLSCAASGRTFPNYAMGWYRQAPGKERELVAAISYSGGTTYYADSVKGRFTISRDNAKNTVYLQMNSLKPEDTAVYDCNALRLGYGLFHYDYWGQGTQVTVSS | low polyreactivity |
| QVQLVESGGGLVQAGGSLRLSCAASGRTFPPTAMGGYRLAPGKEWELVAAISPSGASTYYADSVKGRFTISRDNAKNTVYLQMNSLKPEDTAVYYCAARRFIASPRYKYDYWGQGTQVTVSS | high polyreactivity |
| QVQLVESGGGLVQAGGSLRLSCAASGRTFPPYAMGWYRQAPGKERELVAAISGSGASTYYADSVKGRFTISRDNAKNTVYLQMNSLKPEDTAVYYCARYRGYWGRYYGVDYGYWGQGTQVTVSS | high polyreactivity |
| QVQLVESGGGLVQAGGSLRLSCAASGRTFPRNGMGWYRQAPGKERELGAGISSAGSTNYADSVKGRFTISRDNAKNTFYLHMNSLKPEDTAVYYCNAVLRRRWVTFYYWGQGTQVTVSS | high polyreactivity |
| QVQLVESGGGLVQAGGSLRLSCAASGRTFPRYAMGWYRQATGKERELVAAISVRAGITYYADSVKGRFTISRDNAKNTVYLQMNSLKPEDTAVYYCAKDHWTTSYDEGDYWGQGTQVTVSS | low polyreactivity |
| QVQLVESGGGLVQAGGSLRLSCAASGRTFPRYTMGWYRQAPGKERELVAASATGGSTYYADSVKGRFTISRDNAKNTVYLQMNSLKPEDTAVYYCAARPYSNRYVLGVYYWGQGTQVTVSS | high polyreactivity |
| QVQLVESGGGLVQAGGSLRLSCAASGRTFPSNAMGWYRQAPGKEREFVASITYSGGRTYYADSVKGRFTISRDNAKNTVYLQMNSLKPEDTAVYYCATARYRYHYYSWGQGTQVTVSS | high polyreactivity |
| QVQLVESGGGLVQAGGSLRLSCAASGRTFPVYAMGWYRQAPGKERELVASITGRGGSTYYADSVKGRFTISRDNAKNTVYLQMNSLKPEDTAVYYCARDWYKTYTGYYWGQGTQVTVSS | high polyreactivity |
| QVQLVESGGGLVQAGGSLRLSCAASGRTFPWYAMGWYRQAPGKERELVAAITYSVGSTYYADSVKGRFTISRDNAKNTVYLQMNSLKPEDTAVYYCAADSYPYRYRGKYSRLDYWGQGTQVTVSS | low polyreactivity |
| QVQLVESGGGLVQAGGSLRLSCAASGRTFPYNAMGWYRQAPGKERELVAAISSGGTTNYADSVKGRFTISRDNAKNTVYLQMNSLKPEDTAVYYCAADSVDSSQFRRDYWGQGTQVTVSS | low polyreactivity |
| QVQLVESGGGLVQAGGSLRLSCAASGRTFPYNAMGWYRQAPGKERELVAAITQSAGRTYYADSVKGRFTISRDTAKYTVYFQMNSLKPEDTAVYYCNTVTVAYGYTRLYAQYYYWGQGTQVTVSS | high polyreactivity |
| QVQLVESGGGLVQAGGSLRLSCAASGRTFPYNAMGWYRQAPGKERELVAAITWRGGRTYYADSVKGRFTISRDYAKNTVYLQMNSLKPEDSAVYYCATVRVSRVRPFWNVWRSNYWGQGTQVTVSS | high polyreactivity |
| QVQLVESGGGLVQAGGSLRLSCAASGRTFPYYAMGWYRQAPGKERELVAAIRGTAGNTYYADSVKGRFTISRDNAKNTVYLQMNSLKPEDTAVYYCAKGRPYWSPLTGYNYWGQGTQVTVSS | low polyreactivity |
| QVQLVESGGGLVQAGGSLRLSCAASGRTFPYYAMGWYRQAPGKERELVAAISSSGGRTYYADSVKGRFTISRDNAKNTVYLQMNSLKPEDTAVYYRNVDAWYPYQGFLVGYYYWGQGTQVTVSS | low polyreactivity |
| QVQLVESGGGLVQAGGSLRLSCAASGRTFPYYAMGWYRQAPGKERELVAAITTNDGDTYYADSVKGRFTISRDNAKNTVYLQMNSLKPEDTAVYYCAADSGSTSEYEYWGQGTQVTVSS | low polyreactivity |
| QVQLVESGGGLVQAGGSLRLSCAASGRTFPYYVMGWYRQAPGKERELVAAIRRTGGSTYYADSLKGRFTISRDNAKNTVYLQMNSLKPEDTAVYYCTKRHSILYEGGYDYWGQGTQVTVSS | low polyreactivity |

| Sequence | polyreactivity (PSR sort gate) |
| --- | --- |
| QVQLVESGGGLVQAGGSLRLSCAASGRTFQFYAMGWYRKAPGKEREFVAAIDLRGGSTYYADSVKGRFTISRDNAKNRVYLQMNSLKPEDTAVYYCNATRSKFGYFYRYDYWGQGTQVTVSS | low polyreactivity |
| QVQLVESGGGLVQAGGSLRLSCAASGRTFQFYPMGWYRQAPGKERELVAAIDLRGGSTYYADSVKGRFTISRDNAKNTVYLQMNSLKPEDTAVYYCNADRYTGRDGEQSLDYWGQGTQVTVSS | low polyreactivity |
| QVQLVESGGGLVQAGGSLRLSCAASGRTFQFYVMGWYRQAPGKERELVASIRSGGSTNYADSVKGRFTISRDNAKNTVYLQMNSLKPEDTAVYYCAARVASPYYRYDYWGQGTQVTVSS | low polyreactivity |
| QVQLVESGGGLVQAGGSLRLSCAASGRTFQINGMGWYRQAPGKERELVAAITRSGGITYYADSVKGRFTISRDNAKNTVYLQMNSLKPEDTAVYYCNADSYAYYSWYDYWGQGTQVTVSS | low polyreactivity |
| QVQLVESGGGLVQAGGSLRLSCAASGRTFQLYAMGWYRQAPGKERELVAAITTRADRTYYADSVKGRFTISRDNAKNTVYLQLNSVKPEDTAVYYCAASYSRTYFREDYCGQGTQVTVSS | low polyreactivity |
| QVQLVESGGGLVQAGGSLRLSCAASGRTFQRNAMGWYRQAPGKERELVAAISGGGSTYYADSVKGRFTISRDNAKNTVYLQMNSLKPEDTAVYYCAARSATRLYYFSRGYDYWGQGTQVTVSS | low polyreactivity |
| QVQLVESGGGLVQAGGSLRLSCAASGRTFQSNARGRARQAPGKETELVATISSDGSTYYADSVKGRFTISRDNAKNTVYLQMNSLKPEDTAVYYCAADSHPASTIGVRLDSWGQGTQVTVSS | low polyreactivity |
| QVQLVESGGGLVQAGGSLRLSCAASGRTFQTNVMGWYRQAPGEERELVAAITLSGGSTNYADSVKGRFSISRDNAMYTVYLQMNSLKPEDTAVYYCNAERRYRHQWTPHYEYDYWGQGTQVTVSS | low polyreactivity |
| QVQLVESGGGLVQAGGSLRLSCAASGRTFQVYAMGWYRQAPGKERELVAAISLTGGGTYYADSVKGRFTISRDNAKNTVYLQMNSLKPEDTEVYYCAVRRRTHLGFLYEYWGQGTQVTVSS | high polyreactivity |
| QVQLVESGGGLVQAGGSLRLSCAASGRTFRANAMGWSRQAAGKERELVAAITWDGGSTYYADSVKGRFTISRDNAKNTVYLQMNSLKPEDTAVYYCAAESWFLRWYRYDYWGQGTQVTVSS | low polyreactivity |
| QVQLVESGGGLVQAGGSLRLSCAASGRTFRANAMGWYRQAPGKERELFAAISYSGGRTRYADSVKGRFTISRDNAKNTVYLQMNSLKPEDTAVYYCNRVIPTQSLRDAPGLHQVGYWGQGTQVTVSS | high polyreactivity |
| QVQLVESGGGLVQAGGSLRLSCAASGRTFRANTMGWYRQAPGKERELVAAISDRGGSTYYADSVKGRFTISRDNAKNTVYLQMNSLKPEDTAVYYCAARNTPAQLDYWGQGTQVTVSS | low polyreactivity |
| QVQLVESGGGLVQAGGSLRLSCAASGRTFRAYAMGWYRQAPGKERELVAAISGTGDRTYYADSVKGRFTISRDYAKNTVYLQMNSLKPEDTAVYYCAVSYSYRYYYWGQGTQVTVSS | high polyreactivity |
| QVQLVESGGGLVQAGGSLRLSCAASGRTFRAYAMGWYRQAPGKERELVAAITSGGSTKYADSVKGRFTITRDNAKNTVYLLMNSLKPEDTAVYYCAAVWYGYYSFDTYGYWGQGTQVTVSS | high polyreactivity |
| QVQLVESGGGLVQAGGSLRLSCAASGRTFRAYAMGWYRQAPGKERELVARISWSGGNTYYADSVKGRFTISRDNAKNTVYLQMNSLKPEDTAVYYCAKTYYPYPAQIYTGYSWGQGTQVTVSS | low polyreactivity |
| QVQLVESGGGLVQAGGSLRLSCAASGRTFRAYTMGWYRQAPGKERELVAAISTPGGSTYYADSVKGRFTISRDNAKNTVYLQMNSLKPEDTAVYYCAAGTFYYWLSYDYWGQGTQVTVSS | low polyreactivity |
| QVQLVESGGGLVQAGGSLRLSCAASGRTFRDNVMGWYRQAPGKERELVAAITWSSGSTHYADSVKGRFTISRDNAKNTVYLQMNSLKPEDTAVYYCAQKYGARTKYWEGWNVRYDYWGQGTQVTVSS | low polyreactivity |
| QVQLVESGGGLVQAGGSLRLSCAASGRTFRDYVMGWYRQAPGKERELVAVISYRGSTYYADSVKGRFTISRDNAKNTVYLQMNSVKPEDTAVYYCAGRFSLEGGYYWGQGTQVTVSS | low polyreactivity |
| QVQLVESGGGLVQAGGSLRLSCAASGRTFRENAMGWYRQAPGKERELVAAAISSGDGTNYADSVKGRFTISRDNAKNTVYLQMNSLKPEDTAVYYCAADGPRDSYDYWGQGTQVTVSS | low polyreactivity |
| QVQLVESGGGLVQAGGSLRLSCAASGRTFRENAMGWYRQAPGKERELVAAIRRSGGRTYYADSVKGRFTISRDNAKNTVYLQMNSLKPEDTAVYYCNAVADGYAFRRPYVTYYYWGQGTQVTVSS | low polyreactivity |
| QVQLVESGGGLVQAGGSLRLSCAASGRTFRFNAMGWYRPAPGKEREFVAAITSGGGTYYADSVKGRFTISRDNAKNTVYLQMNSLKPEDTAVYYCATVGIVHHRLVAMDYWGQGTQVTVSS | low polyreactivity |
